# Assay results as given in patent JP2024028198A.
# Residue numbers refer to the chain shown, from its start.
# B1: 抗PAD4抗体2-1-47 (antibody, human IgG1, lambda, V domains shown)
# VH: EVQLLESGGGLVQPGGSLRLSCAASGFTFSTYAMGWVRQAPGKGLEFVAAIRNDGSWTGYGTPYKTRFTISRDNSKNTLYLQMSSLRAEDTAVYYCAKYTGSSGGSIGAWGQGTLVTVSS
# VL: SYELTQPPSVSVSPGQTARITCSGGNRNYYYGWYQQKPGQAPVTVIYANDKRPSGIPERFSGSNSGSTTTLTISGVQAEDEADYYCGTATTGKYVFGGGTKLTVLG
# B2: 抗PAD4抗体3-2-37 (antibody, human IgG1, lambda, V domains shown)
# VH: B1 VH with Y60I, T62Y, P63N, Y64Q, T66S, A97G
# VL: B1 VL with T90L
# B3: 抗PAD4抗体4-2-25 (antibody, human IgG1, lambda, V domains shown)
# VH: B1 VH with G61P, T62P, Y64L, T66G
# VL: B1 VL with T90Y
# B4: 抗PAD4抗体3-1-39 (antibody, human IgG1, lambda, V domains shown)
# VH: B1 VH with Y60T, G61S, T62V, P63N, Y64A
# VL: B1 VL
# Target: ヒ卜PAD4(Cayman Chemical company、Cat. 10500) (human) (UniProt Q9UM07)
# Chain of UniProt Q9UM07 (Q9UM07 whole entry): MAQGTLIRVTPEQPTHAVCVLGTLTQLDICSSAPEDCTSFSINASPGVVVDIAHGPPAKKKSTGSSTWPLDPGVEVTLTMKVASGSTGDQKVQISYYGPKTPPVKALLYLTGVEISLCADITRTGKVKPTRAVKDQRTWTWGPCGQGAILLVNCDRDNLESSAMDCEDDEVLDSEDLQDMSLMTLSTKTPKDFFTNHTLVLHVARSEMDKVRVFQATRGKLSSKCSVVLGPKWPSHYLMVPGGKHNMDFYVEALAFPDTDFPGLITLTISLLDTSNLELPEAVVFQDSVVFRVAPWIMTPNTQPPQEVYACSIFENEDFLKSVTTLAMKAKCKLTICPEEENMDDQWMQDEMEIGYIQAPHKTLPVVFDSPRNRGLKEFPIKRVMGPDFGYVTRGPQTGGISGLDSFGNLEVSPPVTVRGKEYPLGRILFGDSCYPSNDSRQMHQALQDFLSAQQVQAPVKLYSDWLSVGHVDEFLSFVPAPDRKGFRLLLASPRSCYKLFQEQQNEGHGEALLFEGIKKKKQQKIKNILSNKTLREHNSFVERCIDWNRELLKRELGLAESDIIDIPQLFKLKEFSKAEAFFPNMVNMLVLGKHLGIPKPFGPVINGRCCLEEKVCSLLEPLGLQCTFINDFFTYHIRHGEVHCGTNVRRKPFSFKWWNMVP
# Test: SPR Biacore T200, stored antibody captured on Protein A chip, human PAD4 at 50 nM as analyte
row,抗原結合活性 (relative antigen binding after 40℃ for 4 weeks against 4℃ for 4 weeks) [%],Binder
1,> 90,B1
2,> 90,B2
3,> 90,B3
4,> 90,B4
